According to article PMC3349753:

Target: Myc-tagged full-length FGD4 (FYVE, RhoGEF and PH domain-containing 4) (human) (UniProt Q96M96)
Chain of UniProt Q96M96 (Q96M96 whole entry, the tested form may be a part): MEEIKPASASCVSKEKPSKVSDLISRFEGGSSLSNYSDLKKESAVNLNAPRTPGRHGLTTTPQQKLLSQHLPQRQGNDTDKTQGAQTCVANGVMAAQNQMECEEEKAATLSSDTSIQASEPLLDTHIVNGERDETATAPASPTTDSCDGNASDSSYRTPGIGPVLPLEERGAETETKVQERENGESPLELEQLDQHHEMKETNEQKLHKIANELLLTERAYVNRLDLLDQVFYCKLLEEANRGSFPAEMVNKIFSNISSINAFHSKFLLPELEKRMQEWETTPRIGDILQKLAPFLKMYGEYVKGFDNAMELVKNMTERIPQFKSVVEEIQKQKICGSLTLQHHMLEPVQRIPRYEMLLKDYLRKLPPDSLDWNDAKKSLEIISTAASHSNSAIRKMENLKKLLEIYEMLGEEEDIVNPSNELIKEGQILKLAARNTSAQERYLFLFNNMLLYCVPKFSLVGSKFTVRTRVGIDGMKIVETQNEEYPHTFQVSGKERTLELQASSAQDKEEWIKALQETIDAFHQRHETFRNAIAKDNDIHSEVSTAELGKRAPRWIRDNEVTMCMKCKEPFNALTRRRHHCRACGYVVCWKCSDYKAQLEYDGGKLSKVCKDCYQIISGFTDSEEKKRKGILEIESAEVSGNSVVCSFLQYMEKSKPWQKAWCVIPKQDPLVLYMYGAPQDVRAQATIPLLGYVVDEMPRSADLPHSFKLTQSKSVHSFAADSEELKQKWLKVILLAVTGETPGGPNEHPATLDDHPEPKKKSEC

| Substance | level of active Cdc42 (GST-CBD pull-down from NPC-TW01 lysates) on co-expression of Myc-FGD4 with LMP1, compared with expression of FGD4 alone | level of active Cdc42 (GST-CBD pull-down from NPC-TW01 lysates) on co-expression of FGD4 with CD40CT, compared with expression of FGD4 alone: did not promote Cdc42 activation |
| --- | --- | --- |
| Flag-tagged full-length latent membrane protein 1 (LMP1) (from UniProt P03230 1-386) (natural protein) | 1.8 fold |  |
| Flag-CD40CT chimera: the entire transmembrane region of LMP1 (aa 1–177) replaced with that of CD40 (aa 1–214) (from UniProt P25942 21-214; P03230 178-386) |  | 1.1 fold |
